Test: yeast display, Sf9 membrane polyspecificity reagent, FACS + sequencing; frameworks hold sequencing errors
Method in brief: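 Genes from sorted yeast were amplified by colony PCR, read by MiSeq 2 × 250 sequencing and filtered on CDR length. These cells carried a synthetic nanobody library in Saccharomyces cerevisiae BJ5465 and were sorted by FACS into low and high (top ~1%) gates on anti-HA and streptavidin fluorescence. Polyreactivity is labelled according to the gate of origin.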

Sequence	polyreactivity (PSR sort gate)
QVQLVESGGGLVQAGGSLRLSCSASGSTFFWNAMGWYRQAPGKESEFVAAISSSSGSTYYADSVKGRFTISRDNAKNTVYLQMNSLKPEDTAVYYCAARPWGNVFDSAVSYDYWGQGTQVTVSS	low polyreactivity
QVQLVESGGGLVQAGGSLRLSCSASGSTFNVNAMGWYRQAPGKERELVAAIRTSGGSTYYADSVKGRFTISRDNAKNTVYLQMNSLKQEDTAVYYCNARVGSSSSRYYYWGQGTQVTVSS	low polyreactivity
QVQLVESGGGLVQAGGSLRLSCSASGSTFRIYAMGWYRQAPGKERELVAAISWSSGSTYYADSVKGRFTISRDNAKKSVYLQMNSLKPEDTAVYYCATYARRSGYYYWGQGSQVTVSS	high polyreactivity
QVQLVESGGGLVQAGGSLRLSCSASGSTFVTNVIGWYRQAPGKERELVAAISYSGGNTYYEDSVKGRFTISRDNAKNTVYLQMNSLKPEDTAVYYCAASYKPFKKMGYWGQGTQVTVSS	high polyreactivity
QVQLVESGGGLVQAGGSLRLSCSASGSTFYVYAMGWYRQAPGKERELVAAITDSGGSTYADSVKGRFTISRDNAKNTVYLQMNSLKPEDTAVYADSTYNWYYYYWGQGTQVTVSS	low polyreactivity
QVQLVESGGGLVQAGGSLRLSCSPSGSIFVSYTMGWYRQAPGKERELVAAISSGGSTYYADSVKGRFTITRDNAKNTVYLQMNSLKPEDTAVYYCARRLTREYDYWGQGTQVTVSS	low polyreactivity
QVQLVESGGGLVQAGGSLRLSCTASGIIFGTYAMGLYRQAPGKERELVAAISSSGVSTYYADSVKGRFTISRDNAKNTVYLQMNSLKPEDTAVYYCAAPLHYGYYYWGQGTQVTVSS	high polyreactivity
QVQLVESGGGLVQAGGSLRLSCTASGSTFVAYAMGWYRQAPGKERELVAAITSSGGRTYYADSVKGRFTISRDNAKNTVYLQMNSLKPEDTAVYYCAAVTHGRYDWGQGTQVTVSS	high polyreactivity
QVQLVESGGGLVQAGGSLRLSCVASGRIFQSYAMGWYRQAPGKERELVARITGGSSTYYADSVKGRFTISRDNAKNTVYLQMNSLKPEDTAVYYCAARTRGPDRARYDYWGQGTQVTVSS	low polyreactivity
QVQLVESGGGLVQAGGSLRLSCVASGRTFGNNAMGWYRQAHGKERELVAAITSGGSTNYADSVKGCFTISRDNAKNTVYLQMNSLKPEDTAVYYCAAKQYRAGGGYWGQGSQVTVSS	high polyreactivity
QVQLVESGGGLVQAGGSLRLSCVASGSISQTYAMGWYRQAPGKERELVAAISSSGASTYYADSVKGRFTISRDNAKNTVYLQMNSLKPEDTAVYYCNADKFRRYGYWGQGTQVTVSS	high polyreactivity
QVQLVESGGGLVQAGGSLRLSFAASGFTFYYYTMGWYRQEPGKERELVAGISRRRGSTRYADSVKGRFTISRDNAKNTVYLQMNSLKPEDTAVYYCAAYPVVTEFDYWGQGTQVTVSS	high polyreactivity
QVQLVESGGGLVQAGGSLRLSFAASGFTISYYAMGWYRQAPGKERELVAAISQSGGSTYYADSVKGRFTISRDNAKNTVYLQMNSLKPEDTAVYYCAADTYYNLGNYWGQGTQVTVSS	high polyreactivity
QVQLVESGGGLVQAGGSLRLSFAASGGIFRLYAMGWYRQAPGKERELVAAINGGGSTNYADSVKGRFTISRDNAKNTVYLQMNSLKPEDTAVYYCNAVQYYRFQVYEYDYWGQGTQVTVSS	high polyreactivity
QVQLVESGGGLVQAGGSLRLSFAASGNIFVYYAMGWYRQAPGKVRELVAAISFRGGTTYYADSVKGRFTISRDNAKNTVYLQMNSLKPEDTAVYYCAARTMPRVSRKTFGYWGQGTQVTVSS	low polyreactivity
QVQLVESGGGLVQAGGSLRLSFAASGRIFYNYAMGWYRQAPGTERELVAAITDSDGSTYADSVKGRFTISRDNAMNTVYFQMNSLKPEDTAVYYCAARRYYPYKYRYGYWGQGTQVTVSS	high polyreactivity
QVQLVESGGGLVQAGGSLRLSFAASGRIFYVYAMGWYRQAPGKERELVAAITYSGGSTYYADSVKGRFTISRDNAKNTVYLQMNSLKPEDTAVYYCATEGSYTRWSRGLDYWGQGTQVTVSS	low polyreactivity
QVQLVESGGGLVQAGGSLRLSFAASGRIIGYYAMGWYRQAPGKERELVAAITRGGSTNYADSVKGRFTISRDNAKNTVYLQMNSLKPEDTAVYYCAADLARYGKRYDYWGQGTQVTVSS	low polyreactivity
QVQLVESGGGLVQAGGSLRLSFAASGRTFEPYPLGWYRQAPGKERELVAAIDVGDGTTYYAYSVKGRFTISRDNAKYTVYLELNSLKPEDTAVYYCAADVIGFVGSEDYWGQGTQVTVSS	low polyreactivity
QVQLVESGGGLVQAGGSLRLSFAASGRTFVRYAMVWYRQAPGKERELVAAISWSGGSTYYADSVKGRFTISRDNAKNTVYLQMNSLKPEDTAVYYCAAYYRGGNFDYWGQGTQVTLSS	high polyreactivity
QVQLVESGGGLVQAGGSLRLSFAASGRTFYQYGQGWYRQAPGKERELVAAISDSGGGTYYADSVKGRFTFSRDNAKNTVYLQMNSLIPEDTAVYYCAATYVGPRRRYYYWGQGTQVTVSS	high polyreactivity

Sequence	polyreactivity (PSR sort gate)
QVQLVESGGGLVQAGGSLRLSFAASGSIFFGNAKGCYRQAPVKERELVAAITRRGGSTYYADSVKGRFTISRDNAKNPVYLQMYSLKAEDTAVYYCNGVSKRYGYGYWGQGTQVTVSS	high polyreactivity
QVQLVESGGGLVQAGGSLRLSFAASGSILSYYAMGWYTQAPGKERELGAAISKSGGRTYYADSVKGRFTISRDNEKNTVYLQMNSLKPEDTAVYYCAADRYYLSRRPVQNGNEYWGQGTQVTVSS	high polyreactivity
QVQLVESGGGLVQAGGSLRLSFAASGSTFHYYAMGWYRQAPGKERELVAAINSGARTYYADSVKGRFTISRDNAKNTVYLQMNSLKPEDTAVYYCAADDSYRSIGGDYWGQGTQVTVSS	low polyreactivity
QVQLVESGGGLVQAGGSLRLSFAASGSTFPKYAMRGYRPAPGKQRELVASISVTTGSTNYADSEKGRFTISRDNAKNTVYLQMNSLKPEDTAVYYCAADTVYRTHHYAQHYYYWGQGTLVTVSS	high polyreactivity
QVQLVESGGGLVQAGGSLRLSGAASGFTFFINGMGWYRQAPGKVRELVAAIRSSGASTYYADSVKGRFTISRDNAKNTVYLQMNSLKPEDTAVYYCNARSRVGNSVADYDYCGQGTQVTVSS	low polyreactivity
QVQLVESGGGLVQAGGSLRLSGAASGITFGDYAMGWYRQEPGKERELVAAISYSGGSTYYTDSVKGRFTISRDNAKNTVYLQMNSLKPEDTAVYYCAARFRQLGLAYYYWGQGTQVTVSS	high polyreactivity
QVQLVESGGGLVQAGGSLRLSGAASGLIFSRYAMGWYRQAPGKVRELVAAITSGTSTYDADSVKGRFTISRDNAKNTVYKQMNSLKPEDTAGYYCAARWWTYNARDYPDYYWGQGTQVTVSS	high polyreactivity
QVQLVESGGGLVQAGGSLRLSGAASGRYLFTWTAMGWYRQAPGIERELVAGITSGGNTYYADSVKGRFTISRDNPKNTVYLQMNSLKPEDTAVYYCAKGDGRRGDPYSRYDYCGQGTQVTVSS	low polyreactivity
QVQLVESGGGLVQAGGSLRLSGAASGSIFPGYAMGWYRQPPGKERELVATITWSGGSTYYADSVKGRFTISRDNAKNTVYLQMNSLKPEDSAVYYCAAERSWYTGFARDYDYWGQGTQVTVSS	low polyreactivity
QVQLVESGGGLVQAGGSLRLSGAASGSIFSVYAMGWYRQAPGKERELVASISRSGGSTYYADSVKGRFTISRDNAKNTVYLQMNSLKPEDTAVYYCAAYHPIQEYDYWGQGTQVTVSS	high polyreactivity
QVQLVESGGGLVQAGGSLRLSGAATGSIFKIMGWYRQAPGKERELVAAISSSVGNTYYADSVKGRFTISRDNAKNTVYLQMNSLKPEDTAVYYCAAQSKYYQYYSWGQRTQVTVSS	high polyreactivity
QVQLVESGGGLVQAGGSLRLSGASYGFIFVWYAMGWYRQAPGKEREFVAAITSLGGSTYYADSVKGRFTISRDNEKNSVYLHMYSLNPEDTADYYCNAEFFYRGSGYDSWGQGTQVTVSS	high polyreactivity
QVQLVESGGGLVQAGGSLRLSLAASGSIFARYAMGWYRQAPGKERELVAAITYTGGRTYYADSVKGRFTISSDYAKNTVYLKMNSLKPEDTAVFYCAKDGQATVRRGYDYWGQGTQVTVSS	high polyreactivity
QVQLVESGGGLVQAGGSLRLSRAASGFTFPAYTMGWYRQAPGKERELVAAITSSGGNTYYADSVKGRFTISRDNAKHTVYLQMNSLKPEDTAVYYCATVSVRWPSNDHVRYDYWGQGTQVTVSS	low polyreactivity
QVQLVESGGGLVQAGGSLRLSRAASGITFGFNAMGWYRQAPGKERELVAAITWSVGRTYYADSVKGRFTISRDNAKNTVYLQMNSLKPEDTAVYYCAKVFEAGDDYFAYDYWGQGTQVTVSS	low polyreactivity
QVQLVESGGGLVQAGGSLRLSRAASGRTFYGYAMGWYRQAPGKESELVARIRSGGSTNYADSVKGRFTISRDNAKNTVYLQMNSLIPEDTAVYYCAARPGAAGYKYYYWGQGTQVTVSS	high polyreactivity
QVQLVESGGGLVQAGGSLRLSSAASAFIFSSYAMGWYRQAPWKERELVAAITRNGGSTYYADSVKGRFTISRDNAKNTVYLQMNSLKPEDTAVYYCAAQRWRGVGRFDYWGQGTQVTVSW	high polyreactivity
QVQLVESGGGLVQAGGSLRLSSAASAGIFAPNAMGLYRQAPGTEREFVAAISTGGGSTRYADSVKGRFTISRDNAKNTVYLQMNSLKPEDTAVYYCAATRVGVRRMDYWGQGTQVTVSS	low polyreactivity
QVQLVESGGGLVQAGGSLRLSSAASGFIFQSYAMGWYRQAPGKERELVAAISASGGRTYYADSVKGRFTISRDNAKNTVYLQMNSLKPEDTAVYYCAAYRSYWAVYPRMYYWGQGTQVTVSS	high polyreactivity
QVQLVESGGGLVQAGGSLRLSSAASGFTFYYNAMGWYRQAPGKERELVAAITRTGSTNYADSVKGRFTISRDNAKNTVYLQMNSLKPEDTAVYYCAKTYRRTNWGTYDYWGQGTQVTVSS	high polyreactivity

Source: the nanobody polyreactivity screen of Harvey et al. (2022)
